# Measurements reported in patent publication US11098109B2, “Single-chain variable fragment anti-CD133 antibodies and uses thereof” (REGENTS OF THE UNIVERSITY OF MINNESOTA, priority 2010, dated 2021).
# T1: CD133 (Homo sapiens, UniProt O43490)
# T1 construct: endogenous in cells
# T1 sequence (O43490 20-865): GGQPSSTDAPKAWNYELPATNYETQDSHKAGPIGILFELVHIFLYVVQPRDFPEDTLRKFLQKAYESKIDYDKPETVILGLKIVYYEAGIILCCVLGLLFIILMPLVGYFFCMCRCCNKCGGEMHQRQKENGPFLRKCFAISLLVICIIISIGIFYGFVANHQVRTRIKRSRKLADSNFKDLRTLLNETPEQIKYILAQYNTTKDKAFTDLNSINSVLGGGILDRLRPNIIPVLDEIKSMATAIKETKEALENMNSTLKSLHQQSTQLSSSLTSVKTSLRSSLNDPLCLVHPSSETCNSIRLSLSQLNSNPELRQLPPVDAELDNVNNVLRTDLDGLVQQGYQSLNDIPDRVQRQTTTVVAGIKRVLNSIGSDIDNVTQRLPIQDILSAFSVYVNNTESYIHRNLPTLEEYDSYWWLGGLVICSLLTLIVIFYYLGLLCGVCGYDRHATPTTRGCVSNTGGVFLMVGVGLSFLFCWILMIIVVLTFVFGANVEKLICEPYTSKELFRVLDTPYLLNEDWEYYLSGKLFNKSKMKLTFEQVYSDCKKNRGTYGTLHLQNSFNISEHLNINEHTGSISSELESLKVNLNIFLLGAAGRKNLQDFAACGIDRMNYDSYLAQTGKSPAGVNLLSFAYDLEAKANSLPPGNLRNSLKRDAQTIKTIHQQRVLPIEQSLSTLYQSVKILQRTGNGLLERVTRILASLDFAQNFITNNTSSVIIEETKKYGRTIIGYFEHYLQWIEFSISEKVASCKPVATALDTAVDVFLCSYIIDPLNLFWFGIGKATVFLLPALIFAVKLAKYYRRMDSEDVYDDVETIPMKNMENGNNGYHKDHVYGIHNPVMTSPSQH
# B1: No. 11 scFv: soluble scFv of the Hybridoma Clone 7 antibody expressed in E. coli Top10F', SEQ ID NO:58; also used FITC-labeled (protein)
# scFv: MDIVLSQSPAIMSASPGEKVTISCSASSSVSYMYWYQQKPGSSPKPWIYRTSNLASGVPARFSGSGSGTSYSLTISSMEAEDAATYYCQQYHSYPPTFGAGTKLELKSSGGGGSGGGGGGSSRSSLEVKLVESGPELKKPGETVKISCKASGYTFTDYSMHWVNQAPGKGLKWMGWINTETGEPSYADDFKGRFAFSLETSASTAYLQINNLKNEDTATYFCATDYGDYFDYWGQGTTLTVSS
# modifications: optionally FITC-labeled; scFv polypeptide
# B2: Hybridoma Clone 7: monoclonal antibody produced by Hybridoma Clone 7 that specifically binds to human CD133 (antibody, V domains shown)
# VL: DIVLSQSPAIMSASPGEKVTISCSASSSVSYMYWYQQKPGSSPKPWIYRTSNLASGVPARFSGSGSGTSYSLTISSMEAEDAATYYCQQYHSYPPTFGAGTKLELK
# VH: LEVKLVESGPELKKPGETVKISCKASGYTFTDYSMHWVNQAPGKGLKWMGWINTETGEPSYADDFKGRFAFSLETSASTAYLQINNLKNEDTATYFCATDYGDYFDYWGQGTTLTVSS
# Tests used:
# [1] = biological target: T1, CD133; experiment: Flow cytometry of carcinoma lines with FITC-labeled anti-CD133 scFv; assay type: binding
# Experimental: We detected about 5% CD133 cells/95% CD133-cells in the various carcinomas that we examined. […] The anti-CD133 scFV was labeled with FITC and then standard flow cytometry was performed. The levels of CD133 expression (4-7.1%) are in agreement with values reported values. CaCo-2 colorectal carcinoma is a cell line known to express high levels of CD133+ cells so we included it as a positive control. Anti-CD45-FITC and anti-CD19 FITC are negative controls that preferentially recognize hematopoietic cells.
# CD133 expression on UMSCC-11B cells on head and neck cancer cells. CD133 expression was measured on the UMSCC-11B cell line using flow cytometery. Cells were reacted with anti-CD133scFV-FITC for 30 minutes in the dark on ice. Cells were then washed 3× using saline and studied using a flow cytometer (FACScanto™ II, BD Biosciences, Franklin Lakes, N.J.). The blank (untreated cells) was used to establish the gate of non-positive cell activity. CD133 was expressed on both head and neck cancer cell lines, NA and UMSC-11B, at 5.9% and 6% respectively (Table 13). The Caco-2 colorectal carcinoma was included as a positive control cell line since it known to overexpress CD133. Controls included cells reacted with anti-EpCam-FITC, anti-CD45-FITC, and anti-CD19-FITC. Expression of CD45 and CD19 is mostly restricted to normal malignant hematopoietic cells.
# [2] = tested on: CD133^+ Caco-2 cells; experiment: Immunofluorescence of fixed Caco-2 cells with hybridoma supernatants; assay type: binding, human; conditions: hybridoma supernatant
# Experimental: FIG. 2: Analysis of the newly generated CD133 hybridoma. Supematants of hybridoma clones were tested as a primary antibody in western blot (A) and Immunofluorescence (B) assays. Pre-immunized serum (-ve) or post immune anti sera (a.s.) served as controls. For western blot, Caco-2 lysates normalized for protein concentration were loaded onto a SDS-PAGE gel, resolved, blotted onto a nitrocellulose membrane and cut into strips. Each strip was probed with supernatant from the identified hybridoma. Membrane in Lane 1 was probed with a commercially available antibody (ab 19898, Abcam) and served as an additional positive control. For immunofluorescence, Caco-2 cells were fixed and immunostained with the hybridoma supernatants. A commercially available antibody (293C3, Militenyi) was used as additional positive control. Scale bars in the panel represent 200 micrometers. Supernatant of Hybridoma Clone 7 was used in the immunohistochemical analysis of primary glioblastoma and kidney tissue (C).
# Caco-2 cells were plated in 16-well chamber slides. After four days of growth, the cells were fixed with 4% paraformaldehyde, washed in DPBS and then incubated in 200 mM glycine for 10 minutes. The cells were then blocked with a solution of 0.5% BSA and 0.2% gelatin in PBS for 10 minutes. […] The cells were further washed with PBS and then visualized under a fluorescence microscope. […]
Molecule,"% Positive Cells, CD133+ ([1]; BT474, breast) [%]","% Positive Cells, CD133+ ([1]; Caco-2, colon, positive control line, listed as anti-CD133 scFV) [%]","% Positive Cells, CD133+ ([1]; Caco-2, colon, positive control line, listed as anti-CD133scFV-FITC) [%]","% Positive Cells, CD133+ ([1]; MDA-MB231, breast) [%]","% Positive Cells, CD133+ ([1]; MDA-MD468, breast) [%]","% Positive Cells, CD133+ ([1]; MiaPaCa-2, pancreas) [%]","% Positive Cells, CD133+ ([1]; NA, head & neck) [%]","% Positive Cells, CD133+ ([1]; SKBR3, breast) [%]","% Positive Cells, CD133+ ([1]; UMSCC-11B, head & neck, listed as anti-CD133 scFV) [%]","% Positive Cells, CD133+ ([1]; UMSCC-11B, head & neck, listed as anti-CD133scFV-FITC) [%]",levels of CD133 expression ([1]; various carcinoma lines of Table 1),immunofluorescence staining of the Caco-2 cell membrane [2]
B1,4.0,62.8,80.0,4.0,5.2,7.1,5.9,4.2,6.0,6,4-7.1%,
B2,,,,,,,,,,,,robustly stained
